These results are taken from article PMC7473174 (Cell reports, 2020).

The assay concerns the target GST-(TEV)-ZGRF1-(His)6 (human, UniProt Q86YA3 1-2104). The assay is described as follows: pull-down.

GST-(TEV)-ZGRF1-(His)6, sequence (Q86YA3 whole entry): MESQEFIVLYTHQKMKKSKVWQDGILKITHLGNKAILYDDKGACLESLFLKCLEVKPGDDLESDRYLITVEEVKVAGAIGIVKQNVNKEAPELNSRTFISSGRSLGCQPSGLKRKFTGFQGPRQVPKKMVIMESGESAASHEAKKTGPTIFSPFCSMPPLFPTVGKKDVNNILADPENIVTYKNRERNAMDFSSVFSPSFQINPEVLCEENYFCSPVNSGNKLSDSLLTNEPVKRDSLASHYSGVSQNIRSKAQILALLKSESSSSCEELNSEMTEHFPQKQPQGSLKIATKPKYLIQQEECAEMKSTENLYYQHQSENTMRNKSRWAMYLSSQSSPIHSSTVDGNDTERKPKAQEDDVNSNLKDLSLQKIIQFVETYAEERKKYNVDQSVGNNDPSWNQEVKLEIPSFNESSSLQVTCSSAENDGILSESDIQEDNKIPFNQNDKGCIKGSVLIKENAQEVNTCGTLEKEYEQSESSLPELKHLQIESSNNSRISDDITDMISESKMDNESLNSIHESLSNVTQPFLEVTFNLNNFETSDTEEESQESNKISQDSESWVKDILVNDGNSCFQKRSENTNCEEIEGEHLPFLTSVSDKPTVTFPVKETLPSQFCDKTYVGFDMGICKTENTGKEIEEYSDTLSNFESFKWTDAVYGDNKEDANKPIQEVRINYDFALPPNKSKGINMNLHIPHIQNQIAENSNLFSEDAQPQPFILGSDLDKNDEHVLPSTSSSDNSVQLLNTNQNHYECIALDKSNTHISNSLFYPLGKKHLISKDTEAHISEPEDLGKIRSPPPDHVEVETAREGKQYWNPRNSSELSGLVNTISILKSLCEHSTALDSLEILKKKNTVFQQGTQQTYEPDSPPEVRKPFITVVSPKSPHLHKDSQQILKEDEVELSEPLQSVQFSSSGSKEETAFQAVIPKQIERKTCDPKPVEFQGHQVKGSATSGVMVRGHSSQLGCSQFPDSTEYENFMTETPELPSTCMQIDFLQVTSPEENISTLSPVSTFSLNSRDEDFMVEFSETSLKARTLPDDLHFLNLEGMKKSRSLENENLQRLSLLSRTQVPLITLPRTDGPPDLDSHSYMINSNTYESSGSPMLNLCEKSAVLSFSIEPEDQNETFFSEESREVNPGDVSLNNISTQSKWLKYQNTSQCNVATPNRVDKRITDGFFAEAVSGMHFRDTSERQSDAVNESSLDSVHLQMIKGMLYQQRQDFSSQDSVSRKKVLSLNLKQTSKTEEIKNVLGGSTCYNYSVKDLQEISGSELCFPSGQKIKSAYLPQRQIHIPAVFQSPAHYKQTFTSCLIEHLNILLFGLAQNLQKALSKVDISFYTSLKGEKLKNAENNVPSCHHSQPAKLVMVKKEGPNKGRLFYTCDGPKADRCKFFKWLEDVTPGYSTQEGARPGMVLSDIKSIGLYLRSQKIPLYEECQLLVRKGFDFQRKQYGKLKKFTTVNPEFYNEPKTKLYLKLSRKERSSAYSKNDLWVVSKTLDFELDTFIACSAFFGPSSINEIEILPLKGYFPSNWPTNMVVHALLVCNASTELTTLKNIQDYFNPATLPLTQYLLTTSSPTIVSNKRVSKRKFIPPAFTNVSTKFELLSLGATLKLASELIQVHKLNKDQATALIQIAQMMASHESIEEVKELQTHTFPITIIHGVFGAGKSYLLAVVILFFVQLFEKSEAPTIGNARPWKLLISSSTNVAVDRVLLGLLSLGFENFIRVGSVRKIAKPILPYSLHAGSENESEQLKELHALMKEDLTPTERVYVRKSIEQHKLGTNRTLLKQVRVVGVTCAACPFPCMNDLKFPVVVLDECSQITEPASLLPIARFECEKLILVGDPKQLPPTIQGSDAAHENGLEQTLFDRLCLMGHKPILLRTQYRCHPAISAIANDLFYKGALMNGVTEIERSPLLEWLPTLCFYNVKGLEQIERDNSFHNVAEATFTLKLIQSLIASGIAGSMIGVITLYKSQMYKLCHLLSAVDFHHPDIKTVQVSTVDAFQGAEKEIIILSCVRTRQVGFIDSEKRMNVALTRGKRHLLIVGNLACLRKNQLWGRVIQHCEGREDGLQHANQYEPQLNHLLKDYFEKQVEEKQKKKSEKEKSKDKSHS

B1: human RAD51 (natural protein, UniProt Q06609 1-339, looked up)
chain: MAMQMQLEANADTSVEEESFGPQPISRLEQCGINANDVKKLEEAGFHTVEAVAYAPKKELINIKGISEAKADKILAEAAKLVPMGFTTATEFHQRRSEIIQITTGSKELDKLLQGGIETGSITEMFGEFRTGKTQICHTLAVTCQLPIDRGGGEGKAMYIDTEGTFRPERLLAVAERYGLSGSDVLDNVAYARAFNTDHQTQLLYQASAMMVESRYALLIVDSATALYRTDYSGRGELSARQMHLARFLRMLLRLADEFGVAVVITNQVVAQVDGAAMFAADPKKPIGGNIIAHASTTRLYLRKGRGETRICKIYDSPCLPEAEAMFAINADGVGDAKD
B1: the binding result is recorded as “binds”.
